Earlier results on one substance are cited in publication PMC6704176.

This data set concerns the target SRSRY (uPAR-derived peptide) (Homo sapiens).

As a reminder, the Kd is the free concentration of one partner at which half of the binding sites on the other are occupied at equilibrium, for simple one-to-one binding. In the case of FPR1 (from UniProt P21462), the Kd is 0.03 µM.
